What all share (test): ITC
In test [1] the target is T1, N-terminal fragment of mouse Cavin1 HR1 domain (residues 45–103) (mouse, UniProt O54724 45-103).
T1 chain: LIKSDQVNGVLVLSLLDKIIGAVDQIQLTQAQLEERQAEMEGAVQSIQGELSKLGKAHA

The target of test [2] is T2, full-length mouse Cavin1, His-MBP-tagged (mouse, UniProt O54724 1-392).
T2 chain: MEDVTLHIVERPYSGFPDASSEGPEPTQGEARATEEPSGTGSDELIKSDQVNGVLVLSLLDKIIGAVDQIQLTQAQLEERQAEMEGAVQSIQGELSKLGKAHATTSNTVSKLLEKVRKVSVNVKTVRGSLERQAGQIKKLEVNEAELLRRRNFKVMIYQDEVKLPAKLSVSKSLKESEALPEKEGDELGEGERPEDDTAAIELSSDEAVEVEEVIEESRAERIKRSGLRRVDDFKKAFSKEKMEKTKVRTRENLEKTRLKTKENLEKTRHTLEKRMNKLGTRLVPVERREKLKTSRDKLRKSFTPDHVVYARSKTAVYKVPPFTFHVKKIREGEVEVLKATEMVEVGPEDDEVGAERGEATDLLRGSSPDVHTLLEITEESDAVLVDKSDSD

Test [3] concerns the target T3, mouse Cavin1 HR1 domain (residues 45–155), His-Ub-tagged (mouse, UniProt O54724 45-155).
T3 chain: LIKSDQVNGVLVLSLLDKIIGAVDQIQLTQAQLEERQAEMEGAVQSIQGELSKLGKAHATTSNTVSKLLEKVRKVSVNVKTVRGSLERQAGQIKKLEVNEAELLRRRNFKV

In test [4] the target is T4, mouse Cavin1 HR1 domain 5Q mutant (mouse, UniProt O54724 45-155, Lys115 to glutamine | Arg117 to glutamine | Lys118 to glutamine | Lys124 to …).
T4 sequence: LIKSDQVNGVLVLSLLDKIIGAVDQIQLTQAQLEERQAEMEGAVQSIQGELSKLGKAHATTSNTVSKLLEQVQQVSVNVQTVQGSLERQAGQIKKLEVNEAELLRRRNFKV

Experimental findings from publication PMC12079668 (2025) are described below.

B1: nanobody NbB7 (VHH)
VHH: QVQLQESGGGLVQAGGSLRLSCAVSGIRVNVNAMYWYRQAPGKQRELVAIITTFGSTNYADSAKGRFTISRDNTKNTVYLQMDNLKPEDTAVYYCNAPQFTDRYWGQGTQVTVSS
For B1, the Kd in test [1] was 0.451 µM; in test [2], 1.73 µM.

B2: nanobody NbA12 (VHH)
VHH: QVQLQESGGGLVQAGGSLRLSCAASGFTFDDYAIGWFRQAPGKEREGVSCITSSDGSTYYADSVKGRFTISSDNAKNTVYLQMNSLKPEDTAVYYCAAESWPPLCHYSGMDYWGKGTQVTVSS
Regarding B2, the Kd is 0.555 µM in test [1], 8.88 µM in test [2], 0.5 µM in test [3] and 0.143 µM in test [4].

Broadly, the Kd is the equilibrium constant for the complex coming apart. Higher therefore signals weaker binding.
